Reference: patent publication US20020151473A1
pKd: −log10 of the molar value.

Target: IgG
Test: microcalorimetry and surface plasmon resonance (same value stated for both)

In the case of “cyclized (locked helix) peptide FNM(5)QQRRFY(6)ALH”, the pKd was 4.00.
